Laboratory results taken from patent US20150299328A1.

Molecular target: HIR extracellular domain (ECD) (human) (UniProt P06213)
Assay: ELISA, HIR ECD plated

EC50: 0.75 nM
Substance: CHO-derived HIRMAb-IDUA fusion protein (antibody)
